Measurements from US20250115889A1 (DENTERIC, published 2025).
Positions count from the first letter of the chain named.

B1: DUF-ABM213 (other)
chain: AEGSREVKRIGDGLFVTIEPANDVRANEAKVVLAADNVWGDNTGYQFLLDADHNTFGSVIPATGPLFTGTASSNLYSANFEYLIPANADPVVTTQNIIVTGQGEVVIPGGVYDYCITNPEPASGKMWIAGDGGNQPARYDDFTFEAGKKYTFTMRRAGMGDGTDMEVEDDSPASYTYTVYRDGTKIKEGLTATTFEEDGVAAGNHEYCVEVKYTAGVSPKVCKDVTVEGSNEFAPVQNLTGSSVGQKVTLKWDAPNGTPNPNPNPNPNPGT
notes: also called DUF2436 domain plus ABMs
B2: DUF (other)
chain: AEGSREVKRIGDGLFVTIEPANDVRANEAKVVLAADNVWGDNTGYQFLLDADHNTFGSVIPATGPLFTGTASSNLYSANFEYLIPANADPVVTTQNIIVTGQGEVVIPGGVYDYCITNPEPASGKMWIAGDGGNQPARYDDFTFEAGKKYTFTMRRAGMGDGTDM
notes: also called DUF2436 domain; not shown: C-terminal His tag
B3: KDAK1n-4S-AVQP (other)
chain: NTGVSFANYTAHGSETAWADPLLTTSQLKALTNKDKAEGSREVKRIGDGLFVTIEPANDVRANEAKVVLAADNVWGDNTGYQFLLDADHNTFGSVIPATGPLFTGTASSNLYSANFEYLIPANADPVVTTQNIIVTGQGEVVIPGGVYDYSITNPEPASGKMWIAGDGGNQPARYDDFTFEAGKKYTFTMRRAGMGDGTDMEVEDDSPASYTYTVYRDGTKIKEGLTATTFEEDGVAAGNHEYSVEVKYTAGVSPKVSKDVTVEGSNEFAAVQPLTGSSVGQKVTLKWDAPNGTPNPNPNPNPNPGTTLSESFENGIPASWKTIDADGDGHGWKPGNAPGIAGYNSNGSVYSESFGLGGIGVLTPDNYLITPALDLPNGG
notes: also called KDAK1n mutant
B4: rABM21-SSEYQ (other)
chain: ASYTYTVYRDGTKIKEGLTATTFEEDGVAAGNHEYCVEVKYTAGVSPKVCKDVTVEGSSEYQPVQNLTGSSVGQKVTLKWDAPNGT
notes: also called SSEYQ variant
B5: rABM21-Y > A/W > A (other)
chain: B4 chain with Y5A, S59N, Y61F, Q62A, W80A
B6: rABM21-AVQA-2X Cys > Ser (other)
chain: ASYTYTVYRDGTKIKEGLTATTFEEDGVAAGNHEYSVEVKYTAGVSPKVSKDVTVEGSNEFAAVQALTGSSVGQKVTLKWDAPN
B7: rABM21 (other)
chain: B6 chain with S36C, S50C, A63P, A66N
notes: also called recombinant ABM21; recombinant protein encoding ABM2(1) and ABM1(2)
B8: rABM21-AVQA (other)
chain: B6 chain with S36C, S50C
B9: rABM21-AVQN (other)
chain: B6 chain with S36C, S50C, A66N
B10: rABM21--Y > A (other)
chain: B6 chain with Y5A, S36C, S50C, A63P, A66N
B11: rABM21-AVQP (other)
chain: B6 chain with S36C, S50C, A66P
B12: rABM213 (other)
chain: ASYTYTVYRDGTKIKEGLTATTFEEDGVAAGNHEYCVEVKYTAGVSPKVCKDVTVEGSNEFAPVQNLTGSSVGQKVTLKWDAPNGTPNPNPNPNPNPGT
notes: also called recombinant protein encoding ABM2(1), ABM1(2) and ABM3
B13: KDcAK1n-4S (other)
chain: NTGVSFANYTAHGSETAWADPLLTTSQLKALTNKDKWGDNTGYQFLLDADHNTFGSVIPATGPLFTGTASSNLYSANFEYLIPANADPVVTTQNIIVTGQGEVVIPGGVYDYSITNPEPASGKMWIAGDGGNQPARYDDFTFEAGKKYTFTMRRAGMGDGTDMEVEDDSPASYTYTVYRDGTKIKEGLTATTFEEDGVAAGNHEYSVEVKYTAGVSPKVSKDVTVEGSNEFAPVQNLTGSSVGQKVTLKWDAPNGTPNPNPNPNPNPGTTLSESFENGIPASWKTIDADGDGHGWKPGNAPGIAGYNSNGSVYSESFGLGGIGVLTPDNYLITPALDLPNGG
notes: also called chimera with all four Cysteine residues mutated to Serine
B14: KDcAK1n-4S-AVQP (other)
chain: B13 chain with P233A, N236P
notes: also called KDcAKIn-4S-AVQP; KDcAK1n PVQN>AVQP/4 Cys>Ser variant
B15: rABM21-2XCys > Ser (other)
chain: B6 chain with A63P, A66N
B16: rABM21-AVQP-2X Cys > Ser (other)
chain: B6 chain with A66P
notes: also called ABM21-2S-AVQP
B17: KDcAK1n (prior art chimera) (other)
chain: B13 chain with S113C, S206C, S220C, S311C
notes: also called original chimera
B18: KDcAK1nK (other)
chain: NTGVSFANYTAHGSETAWADPLLTTSQLKALTNKDKWGDNTGYQFLLDADHNTFGSVIPATGPLFTGTASSNLYSANFEYLIPANADPVVTTQNIIVTGQGEVVIPGGVYDYCITNPEPASGKMWIAGDGGNQPARYDDFTFEAGKKYTFTMRRAGMGDGTDMEVEDDSPASYTYTVYRDGTKIKEGLTATTFEEDGVAAGNHEYCVEVKYTAGVSPKVCKDVTVEGSNEFAPVQNLTGSSVGQKVTLKWDAPNGTPNPNPNPNPNPGTTLSESFENGIPASWKTIDADGDGHGWKPGNAPGIAGYNSNGCVYSESFGLGGIGVLTPDNYLITPALDLPNGGNTGVSFANYTAHGSETAWADPLLTTSQLKALTNKDK
B19: KDAK1n (other)
chain: B3 chain with S151C, S244C, S258C, A271P, P274N, S349C
B20: KDAK1nK (other)
chain: NTGVSFANYTAHGSETAWADPLLTTSQLKALTNKDKAEGSREVKRIGDGLFVTIEPANDVRANEAKVVLAADNVWGDNTGYQFLLDADHNTFGSVIPATGPLFTGTASSNLYSANFEYLIPANADPVVTTQNIIVTGQGEVVIPGGVYDYCITNPEPASGKMWIAGDGGNQPARYDDFTFEAGKKYTFTMRRAGMGDGTDMEVEDDSPASYTYTVYRDGTKIKEGLTATTFEEDGVAAGNHEYCVEVKYTAGVSPKVCKDVTVEGSNEFAPVQNLTGSSVGQKVTLKWDAPNGTPNPNPNPNPNPGTTLSESFENGIPASWKTIDADGDGHGWKPGNAPGIAGYNSNGCVYSESFGLGGIGVLTPDNYLITPALDLPNGGNTGVSFANYTAHGSETAWADPLLTTSQLKALTNKDK

Biological target: the molecule itself
Experiment: column 'Multimer [yes/no]'; self-association

**Q.** Does B1 bind?
**A.** Result: binds

**Q.** Does B2 bind?
**A.** Result: no binding

**Q.** Does B3 bind?
**A.** Result: no binding

Biological target: the molecule itself
Experiment: Native PAGE without DTT; self-association (ability to form multimers)

**Q.** Does B4 bind?
**A.** Result: binds

**Q.** Does B5 bind?
**A.** Result: no binding

**Q.** Does B6 bind?
**A.** Result: binds

**Q.** Does B7 bind?
**A.** Result: binds

**Q.** Does B8 bind?
**A.** Result: binds

**Q.** Does B9 bind?
**A.** Result: binds

**Q.** Does B10 bind?
**A.** Result: binds

**Q.** Does B11 bind?
**A.** Result: binds

**Q.** Does B12 bind?
**A.** Result: binds

Biological target: the molecule itself
Experiment: native PAGE with and without DTT, self-association (multimer ladder)

**Q.** Does B13 bind?
**A.** Result: binds

**Q.** Does B14 bind?
**A.** Result: no binding

**Q.** Does B15 bind?
**A.** Result: binds

**Q.** Does B16 bind?
**A.** Result: no binding

Biological target: the molecule itself
Experiment: native PAGE of small scale purified protein, self-association (multimers)

**Q.** Does B17 bind?
**A.** Result: binds

Biological target: the molecule itself
Experiment: native PAGE of small scale purified protein, self-association (multimer bands)

**Q.** Does B18 bind?
**A.** Result: binds

Biological target: the molecule itself
Experiment: native PAGE of small scale purified protein, self-association (multimer ladder)

**Q.** Does B19 bind?
**A.** Result: binds

**Q.** Does B20 bind?
**A.** Result: binds
